Source: US20120183527A1

Key:
[1] = target: C-terminal monomer (Aβ monomer coupled at the carboxyl terminus) (UniProt P05067); assay: SPR, biotin-tagged Aβ on Neutravidin sensor (C-terminal monomer sensor)
[2] = target: biotinylated Aβ oligomer bound to Neutravidin (Aβ42 oligomer SPR sensor) (UniProt P05067); assay: SPR, biotin-tagged Aβ on Neutravidin sensor (Oligomer sensor)
[3] = target: N-terminal monomer (Aβ monomer coupled at the amino terminus) (UniProt P05067); assay: SPR, biotin-tagged Aβ on Neutravidin sensor (N-terminal monomer sensor)
[4] = target: Aβ monomer peptide (Aβ42 Peptide Monomer) on ELISA plates (UniProt P05067); assay: ELISA, Aβ monomer plate, fitted maximum
[5] = target: Aβ monomer peptide (Aβ42 Peptide Monomer) on ELISA plates (UniProt P05067); assay: ELISA, Aβ monomer plate, typical half maximum titer
[6] = target: globular Aβ oligomer (Aβ42 oligomers) on ELISA plates (UniProt P05067); assay: ELISA, Aβ oligomer plate, typical half maximum titer
[7] = target: globular Aβ oligomer (Aβ42 oligomers) on ELISA plates (UniProt P05067); assay: ELISA, Aβ oligomer plate, fitted maximum
[8] = target: globular Aβ oligomer (Aβ42 oligomers) on ELISA plates (UniProt P05067); assay: ELISA on globular Aβ oligomer plates with chaotropic salt elution (avidity); this end, printed '>4M', is untreated IVIG (50% not reached at 4M, the highest concentration used)
[9] = target: Aβ monomer peptide (Aβ42 Peptide Monomer) on ELISA plates (UniProt P05067); assay: competition ELISA on Aβ monomer plates, IVIG in 3-fold dilutions from 1 mg/ml, competitor thyroglobulin 40 µg/ml
[10] = target: Aβ monomer peptide (Aβ42 Peptide Monomer) on ELISA plates (UniProt P05067); assay: ELISA half-max titer, Aβ monomer plate against blank plate
Aβ fibril (Aβ42 fibril) [11] = target: Aβ fibril (Aβ42 fibril) (UniProt P05067); assay: ELISA half-max titer, Aβ fibril plate against blank plate
[12] = target: Aβ monomer peptide (Aβ42 Peptide Monomer) on ELISA plates (UniProt P05067); assay: ELISA, best fit of curves, blank plate against Aβ monomer plate
Aβ fibril (Aβ42 fibril) [13] = target: Aβ fibril (Aβ42 fibril) (UniProt P05067); assay: ELISA, Aβ fibril plate, typical half maximum titer
Aβ fibril (Aβ42 fibril) [14] = target: Aβ fibril (Aβ42 fibril) (UniProt P05067); assay: ELISA, best fit of curves, blank plate against Aβ fibril plate
Aβ fibril (Aβ42 fibril) [15] = target: Aβ fibril (Aβ42 fibril) (UniProt P05067); assay: ELISA, Aβ fibril plate, fitted maximum
[16] = target: globular Aβ oligomer (Aβ42 oligomers) on ELISA plates (UniProt P05067); assay: ELISA half-max titer, Aβ oligomer plate against blank plate
[17] = target: globular Aβ oligomer (Aβ42 oligomers) on ELISA plates (UniProt P05067); assay: ELISA, best fit of curves, blank plate against Aβ oligomer plate

Sequence of globular Aβ oligomer (Aβ42 oligomers) on ELISA plates (P05067 672-713 limits assumed): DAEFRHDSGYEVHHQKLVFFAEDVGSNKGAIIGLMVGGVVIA
Sequence of Aβ monomer peptide (Aβ42 Peptide Monomer) on ELISA plates (P05067 672-713 limits assumed): as above
Sequence of Aβ fibril (Aβ42 fibril) (P05067 672-713 limits assumed): as above
Sequence of N-terminal monomer (Aβ monomer coupled at the amino terminus) (P05067 672-713): as the sequence (P05067 672-713 limits assumed) above
Sequence of biotinylated Aβ oligomer bound to Neutravidin (Aβ42 oligomer SPR sensor) (P05067 672-713 limits assumed): as above
Sequence of C-terminal monomer (Aβ monomer coupled at the carboxyl terminus) (P05067 672-713): as the sequence (P05067 672-713 limits assumed) above

Substance	Kd [1]	Kd [2]	Kd [3]	maximum binding value (A450 nm units) [4]	half maximum titer [5]	half maximum titer [6]	maximum binding value (A450 nm units) [7]	ammonium thiocyanate concentration for 50% maximal binding [8]	percent of control binding in presence of competitor [9]	fold by which the blank plate half maximum binding titer is lower than the titer on this plate [10]	fold by which the blank plate half maximum binding titer is lower than the titer on this plate (Aβ fibril (Aβ42 fibril) [11])	fold by which maximum binding on blank plates exceeds that on the amyloid plate [12]	half maximum titer (Aβ fibril (Aβ42 fibril) [13])	fold by which maximum binding on blank plates exceeds that on the amyloid plate (Aβ fibril (Aβ42 fibril) [14])	maximum binding value (A450 nm units) (Aβ fibril (Aβ42 fibril) [15])	fold by which the blank plate half maximum binding titer is lower than the titer on this plate [16]	fold by which maximum binding on blank plates exceeds that on the amyloid plate [17]
6E10 monoclonal anti-Aβ antibody	47 nM	69 nM	158 nM														
intravenous immunoglobulin (IVIG; Gammagard Liquid, Baxter) (antibody)				2.7	42.8	9.42	2.88	4 M	50%	17.6 fold	6.5 fold	1.6 fold	15.8	1.6 fold	2.82	3.9 fold	1.6 fold
